The record followed here is publication PMC4737156, “Taking a molecular motor for a spin: helicase mechanism studied by spin labeling and PELDOR”.

Data set [1] deals with T1, PcrA V344C/Q506C-R1 (2A-2B) (Bacillus stearothermophilus, UniProt P56255 1-724, V344C;Q506C).
T1 sequence: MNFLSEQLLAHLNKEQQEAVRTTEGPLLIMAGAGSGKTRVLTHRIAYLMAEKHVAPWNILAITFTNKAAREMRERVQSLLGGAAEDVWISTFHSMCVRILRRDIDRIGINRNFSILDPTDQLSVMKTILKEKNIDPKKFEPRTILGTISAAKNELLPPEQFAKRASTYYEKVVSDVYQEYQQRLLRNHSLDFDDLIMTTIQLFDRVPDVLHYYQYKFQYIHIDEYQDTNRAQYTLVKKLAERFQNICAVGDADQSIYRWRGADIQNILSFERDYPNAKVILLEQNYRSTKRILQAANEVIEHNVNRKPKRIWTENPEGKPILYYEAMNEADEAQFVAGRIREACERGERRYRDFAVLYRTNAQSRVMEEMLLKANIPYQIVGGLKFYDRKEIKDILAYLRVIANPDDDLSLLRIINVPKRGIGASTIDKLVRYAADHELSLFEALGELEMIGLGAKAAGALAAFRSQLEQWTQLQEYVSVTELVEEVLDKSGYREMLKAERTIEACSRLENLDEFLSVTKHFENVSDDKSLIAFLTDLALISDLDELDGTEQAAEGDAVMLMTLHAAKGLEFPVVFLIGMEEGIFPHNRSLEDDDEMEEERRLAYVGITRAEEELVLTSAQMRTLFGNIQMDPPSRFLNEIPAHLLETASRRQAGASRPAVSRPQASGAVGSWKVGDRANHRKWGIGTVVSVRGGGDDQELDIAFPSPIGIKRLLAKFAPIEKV
The data set can be described thus: PELDOR (DEER) EPR; no nucleotide; distances 37.3 and 44.1 A (1:0.7); PELDOR in D2O buffer (composition, pH not given in material): PcrA 70 uM, DNA 150 uM, nucleotide 10-fold excess, 1 mM MgCl2, 5% EG-d6; XPD 40-50 uM, DNA about 2x, nucleotide/MgCl2 1 mM. To be noted: protein: recombinant; tags: none stated; hairpin, 11 bp duplex, 3' overhang 10 nt.

For data set [2], the target named is T2, PcrA E74C/Q506C-R1 (1A-2B) (Bacillus stearothermophilus, UniProt P56255 1-724, E74C;Q506C).
T2 sequence: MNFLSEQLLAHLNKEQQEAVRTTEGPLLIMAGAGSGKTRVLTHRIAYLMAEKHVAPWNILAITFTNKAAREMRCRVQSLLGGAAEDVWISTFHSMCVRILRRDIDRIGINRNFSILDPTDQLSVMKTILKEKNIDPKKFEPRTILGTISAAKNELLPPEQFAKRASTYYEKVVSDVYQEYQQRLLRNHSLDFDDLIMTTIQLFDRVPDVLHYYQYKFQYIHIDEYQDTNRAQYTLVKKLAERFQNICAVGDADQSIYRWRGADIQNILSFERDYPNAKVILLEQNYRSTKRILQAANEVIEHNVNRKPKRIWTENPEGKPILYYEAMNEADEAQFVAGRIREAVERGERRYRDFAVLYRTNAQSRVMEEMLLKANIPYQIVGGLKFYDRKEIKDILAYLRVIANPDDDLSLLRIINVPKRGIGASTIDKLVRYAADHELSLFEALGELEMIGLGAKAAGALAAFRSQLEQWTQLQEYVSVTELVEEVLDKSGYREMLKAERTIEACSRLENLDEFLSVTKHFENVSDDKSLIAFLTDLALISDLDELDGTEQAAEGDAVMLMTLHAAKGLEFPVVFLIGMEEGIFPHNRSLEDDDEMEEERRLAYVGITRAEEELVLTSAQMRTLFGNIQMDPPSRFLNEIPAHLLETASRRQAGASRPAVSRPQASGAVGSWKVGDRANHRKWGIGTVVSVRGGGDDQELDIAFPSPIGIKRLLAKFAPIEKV
The data set can be described thus: PELDOR (DEER) EPR; no nucleotide; distances 35 and 45 A (0.5:1); PELDOR in D2O buffer (composition, pH not given in material): PcrA 70 uM, DNA 150 uM, nucleotide 10-fold excess, 1 mM MgCl2, 5% EG-d6; XPD 40-50 uM, DNA about 2x, nucleotide/MgCl2 1 mM. The settings on record: protein: recombinant; tags: none stated; hairpin, 11 bp duplex, 3' overhang 10 nt.

With CGAGCACTGCTTTAGCAGTGCTCGTTTTTTTTTT (structured_DNA) [hairpin with 3'-(dT)10 overhang], the binding result in data set [1] and in data set [2] was “binds” in each case.
